Source: publication PMC6428923

Biological target: GDP-bound KRAS4b-farnesyl (farnesylated, not carboxy-methylated) (UniProt P01116)
Experiment: ITC

Kd: 1500 nM
Substance: calmodulin (CaM), full-length, amino acids 2-148 (from UniProt P0DP23 2-148) (natural protein)
